Assay results from patent publication US20200377556A1 (ABERA BIOSCIENCE, published 2020).

B1: GFPnanobody-SpyCatcher (VHH)
VHH: QLVESGGALVQPGGSLRLSCAASGFPVNRYSMRWYRQAPGKEREWVAGMSSAGDRSSYEDSVKGRFTISRDDARNTVYLQMNSLKPEDTAVYYCNVNVGFEYWGQGTQVTVSS
notes: also called GFPnb-SpC; GFPnanobody-SpC
B2: GFPnanobody-SpC_EQ (VHH)
VHH: B1 VHH
notes: also called GFPnb-SpC EQ; GFPnb fused to SpyCatcher E77Q mutant

Columns and labels:
HbpD(Δd1)-SpT [1] = molecular target: T1, HbpD(Δd1)-SpT (Escherichia coli, UniProt O88093 53-1377); assay: covalent Spy-ligation to S. Typhimurium cells, SDS-PAGE/Coomassie
T1 construct: also called HbpD(Δd1)-SpyTag; Hbp(Δd1)-SpT

HbpD(Δd1)-SpT [2] = molecular target: T1, HbpD(Δd1)-SpT; assay: SDS-PAGE/Coomassie of S. Typhimurium cells displaying HbpD(Δd1)-SpT incubated with GFPnb-SpC EQ

Row | Binder | binding result (HbpD(Δd1)-SpT [1]) | binding result (HbpD(Δd1)-SpT [2])
1 | B1 | binds | 
2 | B2 |  | no binding (tested: 3 µM)
